Drawing on patent US12359223B2, “Systems and methods for modulating chromosomal rearrangements” (Editas Medicine, Inc., priority 2018, dated 2025), this text covers translocation products enhanced for one molecule.

This series relates to chromosome 15 (B2M) and chromosome 14 (TRAC) cut sites. The series is described as follows: Translocation rates induced by translocation promoting oligos. The conditions noted are these: Cas9/B2M12 and Cas9/TRAC5 RNPs 0.6 μM; average of plus and minus strand oligo; FIG. 11B. The format is cell-based, human.

Experimental: Two simultaneous DSBs were introduced in primary human T cells by nucleofection with Cas9/B2M (B2M12 gRNA) and Cas9/TRAC (TRAC5 gRNA) RNP complexes at a concentration of 0.6 μM, along with one of the translocation promoting oligos depicted in FIG. 11A.

B1: Dicentric oligo: translocation promoting ssODN, plus or minus strand, SEQ ID NOs: 16, 17 (nucleic acid)
chain 1: CACGCGTTTAATATAAGTGGAGGCGTCGCGCTGGCGGGCATTCCTGAAGCTGACAGCATTCGGGCCGAGATGATCAGGGTTCTGGATATCTGTGGGACAAGAGGATCAGGGTTAGGACATGATCTCATTTCCCTCTTTGCCCC
chain 2: GGGGCAAAGAGGGAAATGAGATCATGTCCTAACCCTGATCCTCTTGTCCCACAGATATCCAGAACCCTGATCATCTCGGCCCGAATGCTGTCAGCTTCAGGAATGCCCGCCAGCGCGACGCCTCCACTTATATTAAACGCGTG
modifications: /note=“Description of Unknown Donor template sequence”
As for B1, the translocation products enhanced result was “enhanced the formation of Dicentric and Acentric translocation products”.
